Experimental findings from article PMC4613515 are described below.

This assay deals with His6–WT cyclin Y (Sf21) (human) (UniProt Q8ND76). Description: co-purification on Ni-NTA–agarose, immunoblot; His6–cyclin Y (WT or S326A) expressed in Sf21 cells and affinity-purified; defined amounts immunoblotted for 14-3-3. Background: In western blotting, separated proteins are transferred to a membrane and probed.
UniProt Q8ND76, sequence (Q8ND76 whole entry): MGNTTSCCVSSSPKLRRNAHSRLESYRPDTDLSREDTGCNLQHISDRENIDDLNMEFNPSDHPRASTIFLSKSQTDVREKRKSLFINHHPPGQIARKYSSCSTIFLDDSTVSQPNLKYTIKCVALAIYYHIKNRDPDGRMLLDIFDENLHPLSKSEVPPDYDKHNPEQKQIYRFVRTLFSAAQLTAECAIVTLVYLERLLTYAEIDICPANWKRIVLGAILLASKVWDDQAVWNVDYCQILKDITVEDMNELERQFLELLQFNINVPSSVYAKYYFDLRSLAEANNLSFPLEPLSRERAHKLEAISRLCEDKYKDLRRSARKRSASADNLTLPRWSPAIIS

The substance “14-3-3 proteins (endogenous in Sf21 cells) (natural protein)” came in with an amount of co-purified 14-3-3 against that with COS-1-derived WT cyclin Y of 100 fold less.
